What all share (test): micro-array, phage-presented peptide on printed CK
In one assay the target is T1, RANTES (CCL5) (UniProt P13501 24-91).
T1 construct: Bought chemokine
T1 sequence (looked up): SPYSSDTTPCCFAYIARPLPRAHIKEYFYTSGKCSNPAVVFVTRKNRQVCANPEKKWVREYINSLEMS
On the procedure: (§1) (1) Printing: Chemokine (CK) solution (in water) was serially diluted with Print Reagent (GenTel BioSurfaces USA) to final concentrations of 50 μg and 25 μg/ml. BSA/BSA-Biotin control solutions (in water) were diluted with Print Reagent to 100 μg/ml. Amplified stock of M13 phage control (M13KEgIII Cloning Vector, New England Biolabs, Cat.No.E8101S) was stored in Tris Buffered Saline (TBS; pH7.5, 4° C.) and diluted with Print Reagent to the working titre (10^8 pfu/μl). An automated spotting robot (16 pin print tool, 0.4mm head; BioRobotics, UK) was used to print the CK/BSA control/M13 control, 5 repeats per sample (CK 25 μg/ml and 50 μg/ml; BSA 100 μg/ml; M13 20 μl), on PATH Protein Microarray Slides (GenTel, Prod.No.2-1005/-1025) at […], and 50-70% relative humidity. Printed micro-array slides were stored at Room Temperature (RT) or 4° C. for at least 24 h before use.
(§2) (2) Blocking: Block Buffer (500 μl/partition; PATHblock, GenTel, Prod.No.2-1014) was applied to the slide for 1 hour at room temp (RT). After removal of Block Buffer, the slide was air dried for 25 minutes;
(§3) (11) Analysis: Quantitative analysis of micro-array was performed by the SpotReader program of Niles Scientific (USA) and presented as Relative Fluorescence (RF) as a function of CK concentration. Micro-array readout (Cy3 fluorescence) was quantified to determine the relative binding affinities of a CBP for the CKs and by inference, the specificity of the CBP for binding to a CK.

In a further assay the target is T2, MCP-4 (CCL13) (UniProt Q99616 24-98).
T2 construct: Bought chemokine
On the procedure:
as §1, §2, §3

Another assay has as its target T3, BCA-1 (CXCL13) (UniProt O43927 23-109).
T3 construct: Bought chemokine
T3 sequence (looked up): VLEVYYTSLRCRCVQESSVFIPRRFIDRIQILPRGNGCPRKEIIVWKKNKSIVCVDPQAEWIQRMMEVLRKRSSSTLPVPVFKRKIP
How it is done:
as §1, §2, §3

The target in another assay is T4, MCP-2 (CCL8) (UniProt P80075 24-99).
T4 construct: Bought chemokine
T4 sequence (looked up): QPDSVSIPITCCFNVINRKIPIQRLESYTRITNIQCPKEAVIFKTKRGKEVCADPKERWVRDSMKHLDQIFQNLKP
On the procedure:
as §1, §2, §3

For a further assay, the target named is T5, Mig (CXCL9) (UniProt Q07325 23-125).
T5 construct: Bought chemokine
T5 sequence (looked up): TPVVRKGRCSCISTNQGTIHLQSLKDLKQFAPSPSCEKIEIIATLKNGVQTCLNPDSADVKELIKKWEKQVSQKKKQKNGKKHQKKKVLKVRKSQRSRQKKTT
How it is done:
as §1, §2, §3

In the next assay the target is T6, GRO-β (CXCL2) (UniProt P19875 35-107).
T6 construct: Bought chemokine
T6 sequence (looked up): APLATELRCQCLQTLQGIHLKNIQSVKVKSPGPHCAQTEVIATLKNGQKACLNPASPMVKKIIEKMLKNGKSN
How it is done: as §1, §2, §3

Another assay deals with T7, Lymphotactin (XCL-1) (UniProt P47992 23-114, limits assumed).
T7 construct: Bought chemokine
T7 sequence (looked up): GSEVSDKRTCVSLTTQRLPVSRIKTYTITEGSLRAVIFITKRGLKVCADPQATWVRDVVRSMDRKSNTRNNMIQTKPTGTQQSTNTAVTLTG
On the procedure: as §1, §2, §3

A further assay has as its target T8, TECK (CCL25) (UniProt O15444 24-150).
T8 construct: Bought chemokine
T8 sequence (looked up): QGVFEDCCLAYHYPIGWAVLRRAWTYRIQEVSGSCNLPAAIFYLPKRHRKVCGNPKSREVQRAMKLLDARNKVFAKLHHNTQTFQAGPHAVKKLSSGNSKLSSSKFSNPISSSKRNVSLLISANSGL
On the procedure: as §1, §2, §3

The target in a further assay is T9, Eotaxin 3 (CCL26) (UniProt Q9Y258 24-94).
T9 construct: Bought chemokine
T9 sequence (looked up): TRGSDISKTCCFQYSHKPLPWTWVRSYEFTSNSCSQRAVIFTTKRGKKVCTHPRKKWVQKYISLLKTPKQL
How it is done:
as §1, §2, §3

The target of the next assay is T10, MCP-1 (CCL2) (UniProt P13500 24-99).
T10 construct: Bought chemokine
How it is done:
as §1, §2, §3

For the next assay, the target named is T11, I-TAC (CXCL11) (UniProt O14625 22-94).
T11 construct: Bought chemokine; also called I-TACK
T11 sequence (looked up): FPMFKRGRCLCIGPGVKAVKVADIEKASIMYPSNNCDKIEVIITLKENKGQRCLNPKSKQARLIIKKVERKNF
How it is done: as §1, §2, §3

In a further assay the target is T12, Eotaxin (CCL11) (UniProt P51671 24-97).
T12 construct: Bought chemokine
On the procedure:
as §1, §2, §3

A further assay deals with T13, Eotaxin 2 (CCL24) (UniProt O00175 27-104, limits assumed).
T13 construct: Bought chemokine
T13 sequence (looked up): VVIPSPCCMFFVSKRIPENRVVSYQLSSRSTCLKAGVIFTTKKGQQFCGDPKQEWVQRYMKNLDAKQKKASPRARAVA
How it is done: as §1, §2, §3

The next assay deals with T14, Exodus-2 (CCL21) (UniProt O00585 24-134).
T14 construct: Bought chemokine
T14 sequence (looked up): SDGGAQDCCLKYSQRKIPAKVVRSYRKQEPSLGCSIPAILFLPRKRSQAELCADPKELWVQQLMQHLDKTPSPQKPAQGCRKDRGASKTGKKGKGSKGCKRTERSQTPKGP
How it is done:
as §1, §2, §3

The next assay addresses T15, IP-10 (CXCL10) (UniProt P02778 22-98).
T15 construct: Bought chemokine
T15 sequence (looked up): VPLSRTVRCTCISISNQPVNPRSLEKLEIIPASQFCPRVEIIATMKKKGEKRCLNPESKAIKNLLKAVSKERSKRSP
On the procedure: as §1, §2, §3

In the next assay the target is T16, I-309 (CCL1) (UniProt P22362 23-96, limits assumed).
T16 construct: Bought chemokine
T16 sequence (looked up): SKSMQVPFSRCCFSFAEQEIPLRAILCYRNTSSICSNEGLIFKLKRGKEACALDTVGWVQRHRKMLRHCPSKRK
On the procedure:
as §1, §2, §3

Ends that are not written are not given here.

T2 sequence (Q99616 24-98 limits assumed): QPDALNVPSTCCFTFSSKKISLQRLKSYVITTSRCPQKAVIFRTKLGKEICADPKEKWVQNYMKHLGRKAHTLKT
T12 sequence (P51671 24-97 limits assumed): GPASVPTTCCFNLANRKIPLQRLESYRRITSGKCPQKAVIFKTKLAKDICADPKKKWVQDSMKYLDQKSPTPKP
T10 sequence (P13500 24-99 limits assumed): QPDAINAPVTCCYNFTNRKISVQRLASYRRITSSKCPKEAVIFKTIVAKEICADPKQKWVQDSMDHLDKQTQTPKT

Consider SYYDDVGL [Phage-Presented Peptide 27 (Ph-p27)], for which the binding result with RANTES (CCL5), with MCP-4 (CCL13), in the assay with BCA-1 (CXCL13), with MCP-2 (CCL8), with GRO-β (CXCL2) and with Lymphotactin (XCL-1) was “binds” each time. For the same molecule, the binding result in the assay with TECK (CCL25), with Eotaxin 3 (CCL26), with MCP-1 (CCL2), with Eotaxin (CCL11), with Eotaxin 2 (CCL24) and in the assay with Exodus-2 (CCL21) was “binds” in each case. Besides, the “Relative Fluorescence Units (RFU)” value with Mig (CXCL9) and in the assay with I-TAC (CXCL11) was > 15000 RFU in each case.
With TTFFDYDYG [Phage-Presented Peptide 11 (Ph-p11)], the binding result with RANTES (CCL5), in the assay with Mig (CXCL9), with GRO-β (CXCL2), with Lymphotactin (XCL-1), with TECK (CCL25) and with Eotaxin 3 (CCL26) was “binds” each time. Besides, the binding result with Eotaxin (CCL11) is recorded as “binds”. For the same molecule, the “Relative Fluorescence Units (RFU)” value with MCP-4 (CCL13), in the assay with MCP-2 (CCL8) and with MCP-1 (CCL2) was > 600 RFU each time.
With GNAMCK [Phage-Presented Peptide 8.1 (Ph-p8.1)], the “Relative Fluorescence Units (RFU)” value with BCA-1 (CXCL13), with Lymphotactin (XCL-1), in the assay with TECK (CCL25) and with Eotaxin 3 (CCL26) was > 15000 RFU throughout.
Regarding TKCQKE [Phage-Presented Peptide 20 (Ph-p20)], the binding result in the assay with RANTES (CCL5), in the assay with BCA-1 (CXCL13), with Mig (CXCL9), in the assay with GRO-β (CXCL2), in the assay with Lymphotactin (XCL-1) and with IP-10 (CXCL10) was “binds” each time. Besides, the binding result with TECK (CCL25), with Eotaxin 3 (CCL26), with Eotaxin (CCL11) and with Exodus-2 (CCL21) was “binds” throughout. The “Relative Fluorescence Units (RFU)” value in the assay with MCP-4 (CCL13), in the assay with MCP-2 (CCL8) and with MCP-1 (CCL2) was > 15000 RFU in each case.
In the case of HYTCSSHFP (also: displayed on M13 phage, fusion not given here) [Phage-Presented Peptide 17 (Ph-p17)], the “Relative Fluorescence Units (RFU)” value in the assay with RANTES (CCL5) and with MCP-2 (CCL8) was > 600 RFU in each case. Further, the binding result with MCP-4 (CCL13), in the assay with Mig (CXCL9), in the assay with GRO-β (CXCL2), in the assay with Lymphotactin (XCL-1), in the assay with TECK (CCL25) and in the assay with Eotaxin 3 (CCL26) was “binds” in each case. Moreover, the binding result in the assay with MCP-1 (CCL2), in the assay with I-TAC (CXCL11) and with Eotaxin (CCL11) was “binds” each time.
WVFGNAMCK (also called Ph-p28; Ph-p 8) [Phage Presented (Ph) Peptide (p) 8]: the “Relative Fluorescence Units (RFU)” value with MCP-4 (CCL13) and in the assay with MCP-2 (CCL8) was > 25000 RFU each time.
WVFGSGLCK [Phage-Presented Peptide 15 (Ph-p15)]: the binding result with RANTES (CCL5), with MCP-4 (CCL13), with BCA-1 (CXCL13), in the assay with MCP-2 (CCL8), in the assay with GRO-β (CXCL2) and with Lymphotactin (XCL-1) was “binds” in each case. Also, the binding result with TECK (CCL25), in the assay with Eotaxin 3 (CCL26), in the assay with MCP-1 (CCL2), with Eotaxin (CCL11), in the assay with Eotaxin 2 (CCL24) and with Exodus-2 (CCL21) was “binds” in each case. Also, the “Relative Fluorescence Units (RFU)” value in the assay with Mig (CXCL9), with IP-10 (CXCL10) and in the assay with I-TAC (CXCL11) was > 15000 RFU throughout.
Consider DRYLNIVHAT [Phage-Presented Peptide 18 (Ph-p18)], for which the binding result in the assay with RANTES (CCL5), with MCP-4 (CCL13), with BCA-1 (CXCL13), in the assay with MCP-2 (CCL8), in the assay with GRO-β (CXCL2) and in the assay with Lymphotactin (XCL-1) was “binds” throughout. Also, the binding result with TECK (CCL25), in the assay with Eotaxin 3 (CCL26), with MCP-1 (CCL2), with Eotaxin (CCL11) and in the assay with Eotaxin 2 (CCL24) was “binds” each time. The “Relative Fluorescence Units (RFU)” value in the assay with Mig (CXCL9) and in the assay with I-TAC (CXCL11) was > 9000 RFU in each case.
Take WVFG [Phage-Presented Peptide 8.4 (Ph-p8.4)]: the “Relative Fluorescence Units (RFU)” value in the assay with MCP-4 (CCL13) and with MCP-2 (CCL8) was > 15000 RFU each time. Moreover, the binding result with BCA-1 (CXCL13), with Mig (CXCL9), in the assay with Lymphotactin (XCL-1), with IP-10 (CXCL10), with TECK (CCL25) and with Eotaxin 3 (CCL26) was “binds” throughout. The binding result with I-309 (CCL1), with I-TAC (CXCL11) and with Eotaxin (CCL11) was “binds” each time.

For the origin of these results see patent US20100227824A1 (SYMTHERA CANADA, published 2010).
